One assay deals with T1, human CD22 domain1-4-His (human, UniProt P20273 20-425).
T1 construct: also called hCD22 domain1-4-His; not shown: His tag
T1 sequence: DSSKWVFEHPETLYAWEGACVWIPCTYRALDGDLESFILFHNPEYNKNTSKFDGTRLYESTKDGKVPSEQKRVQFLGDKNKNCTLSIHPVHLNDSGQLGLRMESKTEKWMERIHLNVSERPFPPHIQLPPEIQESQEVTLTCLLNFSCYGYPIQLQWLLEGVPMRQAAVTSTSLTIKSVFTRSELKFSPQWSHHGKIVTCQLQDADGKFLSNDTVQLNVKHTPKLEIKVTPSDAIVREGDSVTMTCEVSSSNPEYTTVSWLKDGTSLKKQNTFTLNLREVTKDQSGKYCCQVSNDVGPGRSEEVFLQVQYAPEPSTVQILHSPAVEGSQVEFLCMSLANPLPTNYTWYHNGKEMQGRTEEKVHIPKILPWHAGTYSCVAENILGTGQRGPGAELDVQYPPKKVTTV
Put plainly: ELISA, plate coated with human CD22 domain1-4-His. Background: An ELISA detects its analyte on a solid surface through an enzyme-linked reagent.

Assay [1] deals with T2, human CD22-ECD-His protein (human, UniProt P20273 20-687).
T2 construct: Recombinant, from HEK293E cells; also called hCD22-ECD-His; human CD22-His protein; not shown: His tag
T2 sequence: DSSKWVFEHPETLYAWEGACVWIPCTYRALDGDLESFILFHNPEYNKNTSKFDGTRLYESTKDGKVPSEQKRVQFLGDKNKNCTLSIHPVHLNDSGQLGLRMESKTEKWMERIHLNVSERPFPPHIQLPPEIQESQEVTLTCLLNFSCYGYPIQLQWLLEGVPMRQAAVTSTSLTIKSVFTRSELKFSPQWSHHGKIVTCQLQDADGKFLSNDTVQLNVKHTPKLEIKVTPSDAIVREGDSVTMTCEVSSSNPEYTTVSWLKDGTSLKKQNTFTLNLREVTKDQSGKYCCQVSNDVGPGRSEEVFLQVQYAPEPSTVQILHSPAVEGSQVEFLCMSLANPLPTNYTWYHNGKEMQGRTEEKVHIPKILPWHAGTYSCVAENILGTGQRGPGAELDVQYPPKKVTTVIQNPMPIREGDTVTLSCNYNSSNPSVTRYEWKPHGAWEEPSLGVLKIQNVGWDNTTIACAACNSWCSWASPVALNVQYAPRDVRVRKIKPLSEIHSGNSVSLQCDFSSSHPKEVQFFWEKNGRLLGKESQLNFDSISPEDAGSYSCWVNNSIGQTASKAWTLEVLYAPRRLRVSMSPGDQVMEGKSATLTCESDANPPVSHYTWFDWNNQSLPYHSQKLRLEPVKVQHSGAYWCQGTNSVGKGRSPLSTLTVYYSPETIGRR
Put plainly: SPR (Biacore), antibody captured on Protein A chip, CD22-ECD-His in solution. The essentials:
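Antibody captured on Protein A chip, then human CD22-ECD-His injected for 240 s at 30 μL/min, 5 concentrations from 200 nM (1:1 dilution), dissociation up to 600 s, in HBS-EP+ at 25° C. Responses double-referenced; apparent KD and kinetic constants fitted to a Langmuir 1:1 model.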
In general terms: SPR reads the build-up and loss of mass on a sensor chip optically.

Assay [2] deals with T3, monkey CD22 protein (ACROBiosystems, SI2-R52Ha) (monkey (rhesus monkey in paragraph 148), UniProt H9G1X2 18-686).
T3 construct: extracellular domain; also called monkey CD22-ECD; monkey CD22-ECD-His
T3 sequence: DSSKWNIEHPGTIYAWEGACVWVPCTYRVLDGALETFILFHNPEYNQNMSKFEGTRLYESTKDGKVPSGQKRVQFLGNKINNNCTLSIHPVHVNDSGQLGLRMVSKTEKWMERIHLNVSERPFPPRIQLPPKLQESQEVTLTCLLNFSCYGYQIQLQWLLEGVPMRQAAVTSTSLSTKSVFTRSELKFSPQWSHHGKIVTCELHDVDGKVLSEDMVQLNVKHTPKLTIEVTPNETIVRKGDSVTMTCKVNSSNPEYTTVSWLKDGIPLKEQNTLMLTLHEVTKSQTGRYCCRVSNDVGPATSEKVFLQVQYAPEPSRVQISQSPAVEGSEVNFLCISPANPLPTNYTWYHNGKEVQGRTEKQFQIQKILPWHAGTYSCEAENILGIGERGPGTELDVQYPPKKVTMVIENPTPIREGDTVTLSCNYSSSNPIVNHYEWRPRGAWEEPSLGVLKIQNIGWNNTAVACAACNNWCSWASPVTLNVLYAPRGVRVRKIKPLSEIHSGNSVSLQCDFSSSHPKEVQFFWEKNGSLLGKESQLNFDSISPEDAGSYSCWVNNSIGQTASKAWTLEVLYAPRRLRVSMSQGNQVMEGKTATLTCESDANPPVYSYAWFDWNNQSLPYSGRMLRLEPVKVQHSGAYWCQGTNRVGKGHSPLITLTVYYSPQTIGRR
As to the kind of experiment: ELISA, monkey CD22-ECD-His coated. How it is done:
In order to detect the binding activity of CD22 human-murine chimeric antibodies to CD22 protein, the purified human CD22-ECD-His protein obtained in Example 2 was diluted with PBS to a final concentration of 2 μg/mL, and then added to 96-well ELISA plate at 100 μl/well. The plate was sealed with plastic film and incubated overnight at 4° C., the plate was washed 2 times with PBS the next day, and then a blocking solution [PBS+2% (w/w) BSA] was added for blocking at room temperature for 2 hours. […] After incubation at 37° C. for 2 hours, the plate was washed 3 times with PBS. HRP (horseradish peroxidase)-labeled secondary antibody (purchased from Sigma, catalog number: A0170) was added, and incubated at 37° C. for 2 hours, and the plate was washed 5 times with PBS. TMB substrate was added at 50 μl/well, and incubated at room temperature for 30 minutes, then a stop solution (1.0 N HCl) was added at 50 μl/well.
In order to detect the species cross-binding activity of the chimeric antibodies, an ELISA plate was coated with commercial murine CD22 protein (ACROBiosystems, catalog number: SI2-M52Ha) and monkey CD22 protein (ACROBiosystems, catalog number: SI2-R52Ha), respectively, and the ELISA detection was performed according to the method in Example 5.1.

Assay [3] concerns the target T4, monkey CD22 (full length, on HEK293T cells) (monkey).
T4 construct: NCBI XP_014979161.2; also called HEK293T-monkey CD22; HEK293T cells overexpressing monkey CD22
T4 chain: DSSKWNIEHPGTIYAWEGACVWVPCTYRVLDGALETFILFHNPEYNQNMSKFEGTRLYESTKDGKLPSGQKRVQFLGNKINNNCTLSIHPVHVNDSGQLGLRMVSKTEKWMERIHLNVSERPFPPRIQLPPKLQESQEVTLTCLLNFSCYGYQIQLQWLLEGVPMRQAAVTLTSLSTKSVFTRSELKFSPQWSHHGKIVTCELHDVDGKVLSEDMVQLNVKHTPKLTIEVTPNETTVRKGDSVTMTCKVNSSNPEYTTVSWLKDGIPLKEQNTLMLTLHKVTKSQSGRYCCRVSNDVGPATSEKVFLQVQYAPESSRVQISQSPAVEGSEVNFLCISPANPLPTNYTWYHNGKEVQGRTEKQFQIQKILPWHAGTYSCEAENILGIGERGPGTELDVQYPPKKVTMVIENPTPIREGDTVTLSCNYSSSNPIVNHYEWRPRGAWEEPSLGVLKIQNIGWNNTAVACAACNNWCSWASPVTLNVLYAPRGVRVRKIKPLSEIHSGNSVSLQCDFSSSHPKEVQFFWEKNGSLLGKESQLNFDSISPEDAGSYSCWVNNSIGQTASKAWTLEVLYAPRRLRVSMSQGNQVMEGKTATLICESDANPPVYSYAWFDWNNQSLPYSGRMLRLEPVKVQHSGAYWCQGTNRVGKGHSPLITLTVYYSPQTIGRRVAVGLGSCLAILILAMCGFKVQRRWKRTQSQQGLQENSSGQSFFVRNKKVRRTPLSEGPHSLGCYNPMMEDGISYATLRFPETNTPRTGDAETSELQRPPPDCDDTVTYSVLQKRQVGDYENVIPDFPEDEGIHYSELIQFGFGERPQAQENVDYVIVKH
As to the kind of experiment: FACS, HEK293T-monkey CD22 cells (293T as parent cells). The source says: The required cells were scale-up cultured in a T-75 cell culture flask to the logarithmic growth phase. For the adherent cell CHO-K1, the medium was aspirated, the cells were washed 2 times with PBS buffer, and then digested with trypsin. After the digestion was terminated, the cells were washed 2 times with PBS buffer. For suspension cell Raji, the medium supernatant was directly centrifuged and discarded, and the cell pellet was washed 2 times with PBS. After counting the cells in the previous step, the cell pellet was resuspended with [PBS+2% (w/w) BSA] blocking solution to 2×10⁶ cells/ml, and added to a 96-well FACS reaction plate at 50 μl/well, and then the chimeric antibody test sample was added at 50 μl/well, and incubated on ice for 2 hours. The mixture was centrifuged and washed 3 times with PBS buffer, Alexa Flour 488-labeled secondary antibody (purchased from Invitrogen, catalog number: A-11013) was added at 50 μl/well, and incubated on ice for 1 hour. The obtained mixture was centrifuged and washed 5 times with PBS, and FACS (FACS Canto™, purchased from BD Company) was used for detection and result analysis. Data analysis was performed by software (CellQuest) to obtain the mean fluorescence density (MFI)of the cells. And then software (GraphPad Prism8) was used for analysis, data fitting, and EC50 value calculation. […] The same method was used to detect the binding of the chimeric antibodies to endogenous CD22-negative cell MoLT4 cells (purchased from ATCC, CRL-1582) and CHO-K1 cells.
HEK293T-monkey CD22 cells were subjected to FACS detection and data analysis according to the method in Example 5.2.
Background: In flow cytometry, cells or beads pass a laser one at a time.

Assay [4] addresses T5, murine CD22 protein (ACROBiosystems, SI2-M52Ha) (murine, UniProt P35329 22-708).
T5 construct: extracellular domain; also called murine CD22-ECD; murine CD22-ECD-His
T5 sequence (looked up): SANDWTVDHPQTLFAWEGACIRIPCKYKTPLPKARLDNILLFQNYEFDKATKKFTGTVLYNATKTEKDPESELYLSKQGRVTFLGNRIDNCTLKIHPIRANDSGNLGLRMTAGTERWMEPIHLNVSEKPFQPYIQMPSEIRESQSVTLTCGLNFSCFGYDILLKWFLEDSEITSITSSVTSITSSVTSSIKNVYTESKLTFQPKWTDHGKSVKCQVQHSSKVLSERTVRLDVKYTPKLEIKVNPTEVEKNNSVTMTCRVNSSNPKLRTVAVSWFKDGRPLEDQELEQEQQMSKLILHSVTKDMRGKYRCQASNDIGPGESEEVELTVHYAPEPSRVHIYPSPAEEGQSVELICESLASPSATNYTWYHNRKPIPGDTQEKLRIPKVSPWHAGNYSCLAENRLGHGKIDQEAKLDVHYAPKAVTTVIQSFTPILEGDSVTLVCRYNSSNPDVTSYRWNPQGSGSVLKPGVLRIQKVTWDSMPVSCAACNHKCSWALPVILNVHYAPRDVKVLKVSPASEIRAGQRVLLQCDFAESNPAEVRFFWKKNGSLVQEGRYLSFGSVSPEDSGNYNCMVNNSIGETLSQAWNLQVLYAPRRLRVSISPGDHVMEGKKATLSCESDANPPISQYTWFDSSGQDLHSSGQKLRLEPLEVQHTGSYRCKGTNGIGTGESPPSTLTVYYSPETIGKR
Put plainly: ELISA, murine CD22-ECD-His coated. In outline:
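First, CD22 (2 μg/mL, PBS) was coated at 4° C overnight. Second, wells were blocked with PBS containing 2% BSA for 2 h at room temperature. Third, antibody and then HRP secondary were each incubated 2 h at 37° C. Finally, TMB colour was stopped with HCl.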

B1: F1.60.9 (antibody, human IgG1, kappa, V domains shown)
VH: QVQLKESGPGLVAPSQSLSITCTVSGLSLNNYGVSWVRQPPGKGLEWLGVIWGDGSTNYHSALISRLSISKDNSKSQVFLKLNSLHTDDTATYYCAINWGDYWGQGTTLIVSS
VL: DIKMTQSPSSMNASLGERVTITCKASQDINSYLSWFQQKPGKSPKILIYRANRLIDGVPSRFSGSGSGQDYSLTISSLEYEDMGIYYCLQYGVFPLTFGAGTKLELKR
notes: Chimeric IgG1 kappa
Broadly, the Kd is the equilibrium constant for the complex coming apart. In general, koff refers to a measure of how fast the partners let go of each other. As usually defined, the kon is the rate constant with which the complex forms. With B1, in the assay with human CD22 domain1-4-His, the binding result is on record as “no binding”. Also, in assay [1], the Kd worked out at 0.254 nM, the koff came to 7.64e-05 s⁻¹ and the kon came out at 301000 M⁻¹ s⁻¹.

B2: F2.180.16 (antibody, human IgG1, lambda, V domains shown)
VH: EVKLVESGGGLVLPGGSLKISCAASGFTFSDYYMYWIRQTPDKRLEWVAYISNTGYSTFYPDSVKGRFTVSRDNAKNTLYLQMSRLQSEDTAMYYCARHGILYAMDYWGQGTSVTVSS
VL: QPVLTQSSSASFSLGASAKLTCTLSSQYSTYTIGWYQQQPLKPPKYVMELKHDGSRHTGDGIPDRFSGSSSGADRYLSISNIQPEDEATYICGVGDTIKEQFMYVFGGGTKVTVLG
notes: Chimeric IgG1 lambda
As to B2, the binding result with human CD22 domain1-4-His was “no binding”. In assay [1], the dissociation constant (Kd) worked out at 18.4 nM, the koff came out at 0.000155 s⁻¹ and the kon was 8450 M⁻¹ s⁻¹.

B3: m971-hIgG1 (antibody, V domains shown)
VH: QVQLQQSGPGLVKPSQTLSLTCAISGDSVSSNSAAWNWIRQSPSRGLEWLGRTYYRSKWYNDYAVSVKSRITINPDTSKNQFSLQLNSVTPEDTAVYYCAREVTGDLEDAFDIWGQGTMVTVSS
VL: DIQMTQSPSSLSASVGDRVTITCRASQTIWSYLNWYQQRPGKAPNLLIYAASSLQSGVPSRFSGRGSGTDFTLTISSLQAEDFATYYCQQSYSIPQTFGQGTKLEIKR
notes: Control antibody; variable regions from US 8,591,889 B on human IgG1 constant regions
With B3, the binding result is on record as “no binding (tested: 100 nM)” in assay [2], “no binding (tested: 10 nM)” in assay [3] and “no binding (tested: 100 nM)” in assay [4].

Source of the values: patent US20240084003A1 (SIMCERE ZAIMING PHARMACEUTICAL, published 2024).
